According to patent publication US20240400717A1, “Antibody Binding to CHI3L1 for Treating Cancer” (National Cheng Kung University, priority 2021, published 2024):

B1: #R4-2: fully human anti-CHI3L1 mAb, Table 1 No. 7; heavy chain SEQ ID NO: 1, light chain SEQ ID NO: 2 (antibody, listed as Homo sapiens)
heavy: QVQLVQSGAEVKKPGSSVKVSCKASGGTFSSYAISWVRQAPGQGLEWMGGIIPIFGTANYAQKFQGRVTITADESTSTAYMELSSLRSEDTAVYYCARGDIEYYDILTGYYYYFDYWGQGTLVTVSS
light: SYVLTQPPSVSVAPGKAARVTCGGNDIGSKSVQWYQQKPGQAPVLVISYDNDRPSGIPERFSGSNSGNTATLTISRVEAGDEADYYCQVWDSTSDHYVFGTGTKVTVQGQPKANPTVTLFPPSSEELQANKATLVCLISDFYPGAVTVAWKADSSPVKAGVETTTPSKQSNNKYAASSYLSLTPEQWKSHRSYSCQVTHEGSTVEKTVAPTECS
B2: #293R3-5: fully human anti-CHI3L1 mAb, Table 1 No. 5; heavy chain SEQ ID NO: 81, light chain SEQ ID NO: 82 (antibody, listed as Homo sapiens)
VH: EVQLVQSGAGVKKPGATVKISCKVSGYTFTDYYMHWVQQAPGKGLEWMGLVDPEDGETIYAEKFQGRVTITADTSTDTAYMELSSLRSEDTAVYYCATASPREEMPYYFDYWGQGTLVTVSS
light: SYELTQPPSVSVSPGQTASITCSGDILADQYASWYQQKPGQSPVLVIYHDTKRPSGVPERFSGSTSGNTATLTISGTQAMDEAAYYCQAWDINTAWVFGGGTQLTVLGQPKAAPSVTLFPPSSEELQANKATLVCLISDFYPGAVTVAWKADSSPVKAGVETTTPSKQSNNKYAASSYLSLTPEQWKSHRSYSCQVTHEGSTVEKTVAPTECS
B3: #R4-62: fully human anti-CHI3L1 mAb, Table 1 No. 37; heavy chain SEQ ID NO: 41, light chain SEQ ID NO: 42 (antibody, listed as Homo sapiens)
VH: EVQLVESGGGLVQPGGSLRLSCAASGLTFPNFAMTWVRQTPGKGLQWVSTISGRGDEPFYADSVKGRFTISRDNSKNMVYLHMNSLRAEDTAIYYCAKGGHFSSWDYWGQGTLVTVSS
light: NFMLTQPHSVSESPGKTVTISCTRSSGSIASNYVQWYQQRPDSAPTTVIYEDIERPSGVPDRFSGAIDSSANSASLTISGLQTEDEADYYCQSYDSSSYVFGTGTKVTVLGQPKANPTVTLFPPSSEELQANKATLVCLISDFYPGAVTVAWKADGSPVKAGVETTKPSKQSNNKYAASSYLSLTPEQWKSHRSYSCQVTHEGSTVEKTVAPTECS
B4: #R4-63: fully human anti-CHI3L1 mAb, Table 1 No. 38; heavy chain SEQ ID NO: 49, light chain SEQ ID NO: 50 (antibody, listed as Homo sapiens)
VH: EVQLVQSGAEVKKPGATVKISCKVSGYTFTDYYMHWVQQAPGKGLEWMGLVDPEDGETIYAEKFQGRVTITADTSTDTAYMELSSLRSEDTAVYYCATIGRPPDYWGQGTTVTVSS
light: QSVLTQPPSVSAAPGQKVTISCSGSSSNIGNNYVSWYQQLPGTAPKLLIYDNNKRPSGIPDRFSGSKSGTSATLGITGLQTGDEADYYCGTWDSSLSVWVFGGGTKLTVLGQPKAAPSVTLFPPSSEELQANKATLVCLISDFYPGAVTVAWKADSSPVKAGVETTTPSKQSNNKYAASSYLSLTPEQWKSHKSYSCQVTHEGSTVEKTVAPTECS
B5: #R4-53: fully human anti-CHI3L1 mAb, Table 1 No. 33; heavy chain SEQ ID NO: 25, light chain SEQ ID NO: 26 (antibody, listed as Homo sapiens)
VH: QVQLVQSGAEVKKPGASVKVSCKASGYTFTSYYMHWVRQAPGQGLEWMGIINPSGGSTSYAQKFQGRVTMTRDTSTSTVYMELSSLRSEDTAVYYCASDIGDYGDYWGQGTTVTVSS
light: SYVLTQPPSVSVALGQTARITCGGNNIESKIVSWYQQKPGQAPVLVIFYDTDRPSGISERFSGSNSGNTATLTISRVEAGDEADYYCQVWDSNSDHVIFGGGTKLTVLGQPKAAPSVTLFPPSSEELQANKATLVCLISDFYPGAVTVAWKADSSPVKAGVETTTPSKQSNNKYAASSYLSLTPEQWKSHRSYSCQVTHEGSTVEKTVAPTECS

Molecular target: T1, CHI3L1 binding to IL-13Rα2 on A549 cell line (Homo sapiens, UniProt P36222)
T1 construct: host or cells: A549 cells carry the receptor
T1 sequence (P36222 22-383): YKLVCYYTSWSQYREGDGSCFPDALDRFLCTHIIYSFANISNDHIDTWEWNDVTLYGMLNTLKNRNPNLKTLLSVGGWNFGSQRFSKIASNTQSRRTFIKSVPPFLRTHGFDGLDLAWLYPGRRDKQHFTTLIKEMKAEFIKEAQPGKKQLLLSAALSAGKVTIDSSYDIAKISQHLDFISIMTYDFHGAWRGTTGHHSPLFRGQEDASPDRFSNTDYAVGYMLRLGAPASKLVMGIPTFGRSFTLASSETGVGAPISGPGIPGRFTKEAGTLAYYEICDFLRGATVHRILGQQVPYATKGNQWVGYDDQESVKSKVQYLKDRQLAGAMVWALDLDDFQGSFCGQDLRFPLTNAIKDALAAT
Assay: Functional screen: block of CHI3L1 binding to IL-13Rα2 on A549 cell line
Assay type: cell-based
Details: A549 cells, compared with CHI3L1 only
Source text: CHI3L1 is known to associate with different receptors, such as IL-13Rα2 (He et al. 2013), CRTH2 (Zhou et al. 2015), TMEM219 (Lee et al. 2016), and galectin-3 (Zhou et al. 2015). […] Therefore, purified antibody leads were functionally screened for their ability to block CHI3L1 binding to IL-13Rα2 on A549 cell line (FIG. 3A). […] The sequences and defied CDR regions among those monoclonal antibodies are listed and summarized in the sequences list (SEQ ID NOs: 1 to 88) and Table 2, respectively. Anti-CHI3L1 clone R4-2 heavy chain (SEQ ID NO: 1), anti-CHI3L1 clone R4-2 light chain (SEQ ID NO: 2), anti-CHI3L1 clone R4-4 heavy chain (SEQ ID NO: 9), anti-CHI3L1 clone R4-4 light chain (SEQ ID NO: 10), anti-CHI3L1 clone R4-39 heavy chain (SEQ ID NO: 17), anti-CHI3L1 clone R4-39 light chain (SEQ ID NO: 18), anti-CHI3L1 clone R4-53 heavy chain (SEQ ID NO: 25), anti-CHI3L1 clone R4-53 light chain (SEQ ID NO: 26), anti-CHI3L1 clone R4-54 heavy chain (SEQ ID NO: 33), anti-CHI3L1 clone R4-54 light chain (SEQ ID NO: 34), anti-CHI3L1 clone R4-62 heavy chain (SEQ ID NO: 41), anti-CHI3L1 clone R4-62 light chain (SEQ ID NO: 42), anti-CHI3L1 clone R4-63 heavy chain (SEQ ID NO: 49), anti-CHI3L1 clone R4-63 light chain (SEQ ID NO: 50), anti-CHI3L1 clone R4-93 heavy chain (SEQ ID NO: 57), anti-CHI3L1 clone R4-93 light chain (SEQ ID NO: 58), anti-CHI3L1 clone 293R3-2 heavy chain (SEQ ID NO: 65), anti-CHI3L1 clone 293R3-2 light chain (SEQ ID NO: 66), anti-CHI3L1 clone 293R3-4 heavy chain (SEQ ID NO: 73), anti-CHI3L1 clone 293R3-4 light chain (SEQ ID NO: 74), anti-CHI3L1 clone 293R3-5 heavy chain (SEQ ID NO: 81), and anti-CHI3L1 clone 293R3-5 light chain (SEQ ID NO: 82) are shown in sequence listing.

CHI3L1 neutralizing activity | Molecule
best neutralizing activity | B1
best neutralizing activity | B2
best neutralizing activity | B3
best neutralizing activity | B4
best neutralizing activity | B5
